# Publication PMC6269477
# Experiments:
# [1] = molecular target: PBP1A (untagged, purified) (E. coli) (UniProt P02918)
# [2] = molecular target: PBP1B (untagged, purified) (E. coli) (UniProt P02919)
# Chain of PBP1B (untagged, purified) (E. coli) (P02919 46-844 limits assumed): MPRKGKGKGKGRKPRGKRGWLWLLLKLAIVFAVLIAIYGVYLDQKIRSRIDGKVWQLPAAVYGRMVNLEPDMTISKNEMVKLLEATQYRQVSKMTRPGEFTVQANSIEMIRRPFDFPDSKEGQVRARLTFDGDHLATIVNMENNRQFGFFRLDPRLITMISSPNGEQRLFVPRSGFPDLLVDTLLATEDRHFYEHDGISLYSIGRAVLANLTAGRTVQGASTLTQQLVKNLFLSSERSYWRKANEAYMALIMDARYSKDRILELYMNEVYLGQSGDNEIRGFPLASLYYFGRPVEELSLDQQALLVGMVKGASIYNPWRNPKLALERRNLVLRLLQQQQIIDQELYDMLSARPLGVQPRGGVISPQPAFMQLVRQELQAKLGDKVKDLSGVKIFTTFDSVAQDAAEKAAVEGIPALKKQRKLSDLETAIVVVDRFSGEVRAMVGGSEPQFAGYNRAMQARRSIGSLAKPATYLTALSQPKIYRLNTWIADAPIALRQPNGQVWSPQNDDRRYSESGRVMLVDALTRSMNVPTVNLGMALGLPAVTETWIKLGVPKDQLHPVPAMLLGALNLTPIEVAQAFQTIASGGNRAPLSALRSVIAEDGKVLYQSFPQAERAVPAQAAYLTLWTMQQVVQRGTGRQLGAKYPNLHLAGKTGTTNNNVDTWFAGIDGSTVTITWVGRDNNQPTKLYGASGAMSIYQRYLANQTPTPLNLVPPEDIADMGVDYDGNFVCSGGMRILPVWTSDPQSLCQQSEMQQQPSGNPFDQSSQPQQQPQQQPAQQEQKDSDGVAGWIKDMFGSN
# Chain of PBP1A (untagged, purified) (E. coli) (P02918 whole entry): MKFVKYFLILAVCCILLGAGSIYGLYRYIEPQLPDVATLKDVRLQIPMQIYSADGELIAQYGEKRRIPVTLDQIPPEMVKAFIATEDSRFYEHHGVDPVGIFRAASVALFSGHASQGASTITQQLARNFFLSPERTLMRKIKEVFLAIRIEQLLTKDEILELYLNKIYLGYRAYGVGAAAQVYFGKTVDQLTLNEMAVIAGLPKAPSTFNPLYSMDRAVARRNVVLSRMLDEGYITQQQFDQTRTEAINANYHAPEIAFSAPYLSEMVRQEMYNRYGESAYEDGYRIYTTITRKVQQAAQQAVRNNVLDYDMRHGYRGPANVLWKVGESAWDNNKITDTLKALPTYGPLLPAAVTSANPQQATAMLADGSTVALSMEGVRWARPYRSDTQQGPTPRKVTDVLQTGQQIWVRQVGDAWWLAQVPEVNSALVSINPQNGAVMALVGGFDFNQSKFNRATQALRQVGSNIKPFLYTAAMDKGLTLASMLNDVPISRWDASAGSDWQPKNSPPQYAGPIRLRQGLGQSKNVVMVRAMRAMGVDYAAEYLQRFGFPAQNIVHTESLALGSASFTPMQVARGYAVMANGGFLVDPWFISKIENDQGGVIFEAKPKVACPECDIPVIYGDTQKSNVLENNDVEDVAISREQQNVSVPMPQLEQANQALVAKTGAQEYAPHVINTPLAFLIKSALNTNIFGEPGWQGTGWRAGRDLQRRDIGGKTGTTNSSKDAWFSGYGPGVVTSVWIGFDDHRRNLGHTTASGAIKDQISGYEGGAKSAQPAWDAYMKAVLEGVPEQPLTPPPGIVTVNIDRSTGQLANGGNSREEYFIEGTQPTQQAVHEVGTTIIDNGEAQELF
Substance,"GTase rate of PBP1A (consumption of dansylated lipid II), normalised to PBP1A alone, with FtsN [1]","GTase rate of PBP1B (consumption of dansylated lipid II), normalised to PBP1B alone, with FtsN [2]","GTase rate of PBP1A (consumption of dansylated lipid II), normalised to PBP1A alone, with ZipA [1]","GTase rate of PBP1A, normalised to PBP1A alone, with ZipA and FtsN together [1]","GTase rate of PBP1B (consumption of dansylated lipid II), normalised to PBP1B alone, with ZipA [2]","GTase rate of PBP1B, normalised to PBP1B alone, with ZipA and FtsN together [2]"
FtsN-His (from UniProt P29131 1-319) (natural protein),1.3 fold,2.6 fold,–,–,–,–
"ZipA (untagged, oligohistidine tag removed by thrombin) (from UniProt P77173 1-328) (natural protein)",–,–,2.6 fold,3.4 fold,1.4 fold,3 fold
